Experimental findings from patent US9422583B2, “Stereospecific carbonyl reductases” (RUTGERS, THE STATE UNIVERSITY OF NEW JERSEY, priority 2009, dated 2016) are described below.

The test system of one data set is O=C(CO)c1ccccc1. As to the kind of experiment: reduction of 2-hydroxyacetophenone with NADPH, apparent kinetic parameters by Lineweaver-Burk plots. The class given is biochemical, Candida parapsilosis. The procedure: (§1) Since environmental pH value can have an influence on the stereochemistry of enzymatic reactions (Secundo and Phillips, Enzyme Microb. Technol., 19, 487-492 (1996)), the effect of the reaction pH on the activities of SCRs catalyzing 2-hydroxyacetophenone reduction was also investigated. […] Subsequently, the enzymes were evaluated under their individual optimal pH, and apparent kinetic parameters were further measured by double reciprocal Lineweaver-Burk plots at various 2-hydroxyacetophenone concentrations with fixed NADPH concentrations. […] The values are the average of three independent experiments.
(§2) Enzyme Assays. Carbonyl reductase activity was measured by a continuous spectrophotometric assay using 2-hydroxyacetophenone as a substrate. One unit of enzyme activity was defined as the amount of enzyme catalyzing the oxidation of 1 μmol NAD(P)H per min under the assay conditions. The standard assay mixture for the enzyme activity comprised of 0.1 M potassium phosphate buffer (pH 6.5), 0.3 mM NAD(P)H, 0.7 mM 2-hydroxyacetophenone and appropriate enzyme in a total volume of 100 μl. The decrease in the amount of the coenzyme was measured spectrophotometrically at 340 nm (extinction coefficient [ε]=6.22 mM^−1 cm^−1). Protein concentration was determined using Bradford reagents (Bio-Rad) with bovine serum albumin as a standard. The pH dependence of enzyme activity was determined over a pH range of 4.0 to 8.5 using the following buffers: 0.1 M acetate (pH 4.0 to 6.0), 0.1 M sodium phosphate (pH 6.0 to 8.0) and 0.1 M Tris-HCl (pH 8.0 to 8.5).

Data set [1] can be described thus: Carbonyl reductase activity and kinetic parameters, continuous spectrophotometric assay (NAD(P)H decrease at 340 nm). The class given is biochemical. The note with it: reduction of 2-hydroxyacetophenone. The procedure:
Catalytic Properties of Recombinant SCRs. The enzymatic activities of SCR1, SCR2, and SCR3 were investigated for reduction of 2-hydroxyacetophenone.
as §1, §2

The nature of data set [2]: Substrate specificity of SCRs with NADPH as cofactor. The class given is biochemical. From the text: The substrate specificity of SCRs was investigated under the same conditions as described above. Various carbonyl compounds including aryl ketones, aliphatic ketones, α- and β-ketone esters were used as the substrates with the cofactor of NADPH.
Where [3] appears, read: other: pH 6.0 (optimum pH), NADPH as cofactor at fixed concentration, average of three independent experiments.
Setting [4] is: other: pH 5.5 (optimum pH), NADPH as cofactor at fixed concentration, average of three independent experiments.
Setting [5] is: other: pH 5.0 (optimum pH), NADPH as cofactor at fixed concentration, average of three independent experiments.
Where [6] appears, read: other: pH 4.5 (optimum pH), NADPH as cofactor.
[7] abbreviates: NADPH as cofactor, at optimum pH of each enzyme.
[8] abbreviates: compared with the other enzyme (SCR1 vs SCR3).

Usually Km stands for the concentration of substrate that gives half-maximal velocity. As usually defined, the Vmax is the rate approached at saturating substrate. Regarding “Candida parapsilosis stereospecific carbonyl reductase SCR3, SEQ ID NO:2 (GenBank FJ939564), recombinant with C-terminal His6 tag (Lodderomyces parapsilosis CDC317)”, in the data set with O=C(CO)c1ccccc1 (setting [3]), the Km turned out to be 4.68 mM and the Vmax is 32.3 µmol/min/mg.
Consider “Candida parapsilosis stereospecific carbonyl reductase SCR2, SEQ ID NO:3 (GenBank FJ939563), recombinant with C-terminal His6 tag (Lodderomyces parapsilosis CDC317)”, for which, in the data set on O=C(CO)c1ccccc1 (setting [4]), the Michaelis-Menten constant (Km) worked out at 4.81 mM and the Vmax was 8.83 µmol/min/mg.
Turning to “Candida parapsilosis stereospecific carbonyl reductase SCR1, SEQ ID NO:4 (GenBank FJ939565), recombinant with C-terminal His6 tag (Lodderomyces parapsilosis CDC317)”, in the data set with O=C(CO)c1ccccc1 (setting [5]), the Michaelis-Menten constant (Km) amounted to 9.83 mM and the Vmax amounted to 42 µmol/min/mg.
Regarding “Candida parapsilosis CPADH, SEQ ID NO:1 (GenBank DQ675534) (Lodderomyces parapsilosis CDC317)”, in the data set on O=C(CO)c1ccccc1 (setting [6]), the Km is 5.83 mM and the Vmax was 18.3 µmol/min/mg.

B1: SCR2: stereospecific carbonyl reductase from C. parapsilosis, GenBank FJ939563, recombinant with C-terminal His6 tag (protein, listed as Candida parapsilosis)
chain: MGEIESYCNKELGPLPTKAPTLSKNVLDLFSLKGKVASVTGSSGGIGWAVAEAYAQAGADVAIWYNSHPADEKAEHLQKTYGVRSKAYKCNISDPKSVEETISQQEKDFGTIDVFVANAGVPWTEGPEINVDNYDSWNKIINLDLNGVYYCAHTVGKIFKKNGKGSLVITSSMSGTIVNVPQLQAAYNAAKAACTHLTKSLAVEWAPFARVNCVSPGYIATEISDFVEKDMKAKWWQLTPLGREGLAQELVGAYLYLASNASTYTTGANLAVDGGYTCP
modifications: C-terminal His6 tag
As for B1, the “pH (optimum pH for each enzyme)” value in data set [1] (NADPH as cofactor) is given as 5.5. Further, the Specific activity in data set [1] (setting [7]) is 1.55 μmol/min mg protein; in data set [1] (under the assay conditions), 1.55 µmol/min/mg protein.

B2: SCR3: stereospecific carbonyl reductase from C. parapsilosis, GenBank FJ939564, recombinant with C-terminal His6 tag (protein, listed as Candida parapsilosis)
chain: MGEIESYCNKELGPLPTKAPTLAKNVLDLFSLKGKVASVTGSSGGIGWAVAEAYAQAGADVAIWYNSHPADEKAEHLQKTYGVRSKAYKCNISDPKSVEETISQQEKDFGTIDVFVANAGIPWADGPVIDLENYDAWNKLINTDINGVFYCAHSIGKIFKKNGKGSLIITASLAGSVVTIPQQQTPYNTAKAACLHLAKSLAVEWAPFARVNTVSPGYFETEINGFADEDMREKWYQLTPLGRMGITEELVGGYLYFASNASTFTTGSDLIIDGGFTCP
modifications: C-terminal His6 tag
For B2, the “pH (optimum pH for each enzyme)” value in data set [1] (NADPH as cofactor) stood at 6.0. This molecule yielded a Specific activity in data set [1] (setting [7]) of 4.23 μmol/min mg protein. The “specificity to p-Cl-2-hydroxyacetophenone” value in data set [2] (setting [8]) is reported as “more specific”.

B3: SCR1: stereospecific carbonyl reductase from C. parapsilosis, GenBank FJ939565, recombinant with C-terminal His6 tag (protein, listed as Candida parapsilosis)
chain: MSKDETISYCNDQLGPLPTTAPKVSDNVTDLFSFKGKVVSVTGSSGGIGWAVAEGFAQAGADVAIWYHSHNADEKAKYLQEKYGVKSIAYGCNIGVAEEVQKTVDQIESDFGKIDVFVANAGIPWTDGPEIDVQDLSKWTKIIDTDLNSVYYCAHAIGPIFRKQGKGSLVITASMSATIVNVPQLQAAYNVAKAGVKHLSKSLAVEWAPFARVNSVSPGYISTNLTTFANPDLQKKWVQLTPLGREGHPKELVGAYLYLASDAATFTTGCDLAVDGGYTVP
modifications: C-terminal His6 tag
Take B3: the “pH (optimum pH for each enzyme)” value in data set [1] (NADPH as cofactor) is given as 5.0. Besides, the Specific activity in data set [1] (setting [7]) is listed as 5.16 μmol/min mg protein. In addition, in data set [2] (among the tested β-ketoesters), the “activity for reduction of ethyl 4-chloro-3-oxobutyrate” value is “highest activity”. The “activity to m-Cl-2-hydroxyacetophenone” value in data set [2] (setting [8]) is “higher activity”.

B4: CPADH: C. parapsilosis enzyme encoded by cpadh gene, GenBank DQ675534, comparison enzyme in Table 1 (protein, listed as Candida parapsilosis)
chain: MGEIESYCNKELGPLPTKAPTLSKNVLDLFSLKGKVASVTGSSGGIGWAVAEAYAQAGADVAIWYNSHPADEKAEHLQKTYGVHSKAYKCNISDPKSVEETISQQEKDFGTIDVFVANAGVTWTQGPEIDVDNYDSWNKIISVDLNGVYYCSHNIGKIFKKNGKGSLIITSSISGKIVNIPQLQAPYNTAKAACTHLAKSLAIEWAPFARVNTISPGYIDTDITDFASKDMKAKWWQLTPLGREGLTQELVGGYLYLASNASTFTTGSDVVIDGGYTCP
Consider B4, for which the “pH (optimum pH for each enzyme)” value in data set [1] (NADPH as cofactor) was determined as 4.5. Further, the Specific activity in data set [1] (setting [7]) was 2.70 μmol/min mg protein.
